From PMC6173795, “The FapF Amyloid Secretion Transporter Possesses an Atypical Asymmetric Coiled Coil” (Journal of Molecular Biology, 2018)

B1: FapFCC synthetic peptide (predicted coiled-coil region of FapF, residues 3-40) (peptide)
chain: DVDIETLKQELLELKQRYEAQQKALAVLEQRVRQVEDQ
notes: FapF amyloid secretion transporter of Pseudomonas, coiled-coil region, residues 3-40; Parallel trimer; six chains (two trimers) in the asymmetric unit of the crystal; also called FapFCC peptide; periplasmic domain of FapF; source: synthetic peptide (ChinaPeptides, 97.5% purity)
B2: recombinant FapF3-40 (FapFCC), wild type (domain or fragment, Pseudomonas UK4)
chain: B1 chain
notes: Cloned into pNIC28-Bsa4 (vector: Addgene plasmid no. 26103); also called recombinant FapFCC; not shown: His6, N-terminal, cleaved

Columns and labels:
[1] = biological target: the molecule itself; experiment: crystal structure; synthetic peptide at 10 mg/ml; 0.2 M zinc acetate dihydrate, 0.1 M sodium cacodylate pH 6.5, 10% v/v 2-propanol; data processed in P1, six chains in the asymmetric unit
[2] = biological target: the molecule itself; experiment: SEC-MALS; Superdex 75 10/300 GL, phosphate buffer (20 mM PO4, 150 mM NaCl, pH 6.8), 100 ul FapF3-40 samples at 1 mg/ml, 0.25 ml/min; size exclusion profiles of wild type, R33A and R33E

Protein | stoichiometry N [1] | stoichiometry N [2]
B1 | 3 | –
B2 | – | 3
